Reference: PMC8438039

Biological target: human Toll-like receptor 5 (hTLR5) on HEK-Blue hTLR5 cells (human) (UniProt O60602)
Chain of UniProt O60602 (O60602 21-858): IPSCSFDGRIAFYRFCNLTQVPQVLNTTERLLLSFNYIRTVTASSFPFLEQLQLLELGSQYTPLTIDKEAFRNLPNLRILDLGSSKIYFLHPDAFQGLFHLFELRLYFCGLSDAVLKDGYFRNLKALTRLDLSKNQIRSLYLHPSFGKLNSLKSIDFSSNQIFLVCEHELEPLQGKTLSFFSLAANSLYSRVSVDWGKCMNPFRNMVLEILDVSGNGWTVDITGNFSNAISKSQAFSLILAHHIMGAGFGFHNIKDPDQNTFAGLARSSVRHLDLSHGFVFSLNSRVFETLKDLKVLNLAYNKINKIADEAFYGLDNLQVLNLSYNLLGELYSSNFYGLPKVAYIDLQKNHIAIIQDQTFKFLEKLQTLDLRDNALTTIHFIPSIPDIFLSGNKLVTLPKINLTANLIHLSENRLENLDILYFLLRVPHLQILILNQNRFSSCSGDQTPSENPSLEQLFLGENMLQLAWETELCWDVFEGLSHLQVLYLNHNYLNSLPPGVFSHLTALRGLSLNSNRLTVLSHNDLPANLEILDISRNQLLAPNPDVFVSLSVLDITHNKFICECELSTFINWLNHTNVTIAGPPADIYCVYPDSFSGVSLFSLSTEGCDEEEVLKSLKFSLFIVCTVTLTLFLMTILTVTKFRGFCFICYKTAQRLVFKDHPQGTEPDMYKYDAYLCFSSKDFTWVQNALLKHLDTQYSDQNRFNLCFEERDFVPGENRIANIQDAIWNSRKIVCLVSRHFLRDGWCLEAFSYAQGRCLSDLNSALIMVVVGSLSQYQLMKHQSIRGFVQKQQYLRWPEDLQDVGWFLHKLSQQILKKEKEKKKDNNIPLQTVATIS

| Substance | EC50 of TLR5-dependent NF-κB activation in HEK-Blue hTLR5 cells (OD 620; 0.03719 nM to 76.16 nM protein) |
| --- | --- |
| Vibrio vulnificus flagellin B (FlaB), wild type recombinant (natural protein) | 4.18 nM |
| D2D3 domain-depleted FlaB (FlaB^ΔD2D3) (natural protein) | 13.2 nM |
| deimmunized FlaB (dFlaB), FlaB lacking residues 175-193 (natural protein) | 9.01 nM |
